Results published in the supplement of paper PMC9170038.

System: K4 kissing-loop RNA reporter
Assay: apparent KD of K4 kissing-loop reporter; higher = weaker reporter binding
Conditions: Eterna round: R107
Experimental: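 RNA-MaP round R107: designed RNA switches with theophylline, tryptophan, arginine or FMN aptamers are transcribed on-chip within common flanks. They are titrated with a labelled K4 kissing-loop RNA reporter in RNA-MaP buffer (100 mM Tris pH 7.5, 80 mM KCl, 4 mM MgCl2), without ligand or with the indicated ligand. Median apparent KD per design.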

[1] = input ligand: theophylline 20 uM
[2] = input ligand: tryptophan 2.4 mM
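Also: bound reporter read as fluorescence of individual clusters on recovered sequencing chips by microscopy, with normalized cluster intensities fitted with a binding model.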

| Sequence | apparent KD of K4 kissing-loop reporter (input ligand: FMN 200 uM) | apparent KD of K4 kissing-loop reporter (input ligand: arginine 13.2 mM) | apparent KD of K4 kissing-loop reporter (input ligand: none) | apparent KD of K4 kissing-loop reporter [1] | apparent KD of K4 kissing-loop reporter [2] |
| --- | --- | --- | --- | --- | --- |
| AGAUGACACGGAGGAUAUCCUAAUAUGGGUGAUGUUAGCGAUGUUGAAGGUGUAGUGAUGUUAUGCGGAGAAGGCCGUGUUGUUU [BDazzled - #22 - Exc. FMN B] | 103 nM | 85.6 nM | 155 nM | 102 nM | 96.1 nM |
| GGAGUUACCUGGGAUACCAGUCGGAGUCCUAGAGCUCGGAGUGAUGUUCUGGGAUGUUUCGGCCCUUGGCAGCUCUGGGACUCCC [#2 Exclusion - Theophylline B Attempt #11 (HarryS)] | 615 nM | 470 nM | 949 nM | 921 nM | 630 nM |
| GGAGUUACCUGGGAUACCAGUCGGAGUCUCAGAGCUCGGAGUGAUGUUCUGGGAUGUUUCGGCCCUUGGCAGCUCUGGGACUCCU [#2 Exclusion - Theophylline B Attempt #17 (HarryS)] | 698 nM | 569 nM | 747 nM | 788 nM | 512 nM |
| AGGGAUGUUAAAGGAUAUAGAAAGUGAUGUUAGAAAGUGAGUGAUGUUGAUGUAAGUGAUGUUAUGUUAGAAGGUUAACAAAACG [ab] | 229 nM | 120 nM | 200 nM | 215 nM | 170 nM |
| UGUCAUUGGUCUGAUACCAGUCCCUUGGCAGCCAAAUGGAGUGAUGUUCCAAGGAUACCAGACCCUUGGCAGCAGACCGAUGACU [TheoBS 26 #DoubleAptamer #SwitchBubble] | 556 nM | 397 nM | 552 nM | 377 nM | 499 nM |
| GAGGCCAGACGGAGUGAUGUUUCGUAUGAUACCAGCAGCGAAAGCUGCCCUUGGCAGCAUGCCACGGCCUCGGCGGGAAACCGCC | 372 nM | 319 nM | 397 nM | 446 nM | 384 nM |
| GGUUAGUGAUGUUGAUCAAAUCGCGGUGAUACCAGCAACACAUCGUGCCCUUGGCAGCACGGCAAAAUGAAUGCGGUCGAAUGCG [theeternabot_exclusion_KL_Theo_A_19] | 487 nM | 484 nM | 546 nM | 478 nM | 412 nM |
| GGAUAGGAUAGAGGAUAUGGAUUAGGCAAGAAUAACUUGUCUUGUAAAUCCAUGAGGAGUGAUGUUCCAGAAGGCUGUCCUAUCG [MatMod 6 - Jieux - Exclusion - FMN B] | 233 nM | 113 nM | 116 nM | 117 nM | 94.3 nM |
| GGAUAGGACACAGGAUAUGGGCUAGGCAAGAAUAACUUGUCUAGCAAAUCCAUGAGGAGUGAUGUUCCAGAAGGGUGUCCUAUCG [FmnBX 1 C11+G75] | 431 nM | 111 nM | 94.9 nM | 97.3 nM | 86.7 nM |
| UAAGAAUAAGUAGCAGUGAUGUUGCUACUACGAGGACCGGUACGGCCGCCACUCGAGUCCUCGAAACAUCACUGAACGAGGAAUA [(H,1)-(H,2)-(Trp1)-(Trp2)-(T)'-(H)'-(T)''] | 231 nM | 150 nM | 201 nM | 136 nM | 358 nM |
| AUUUAAUGUAUAGAUUAUAUACAUUAUUCAGAGGAUAUGCAUUGAAGCAGAAGGCUGGGUGUAGUGAUGUUGCAAUUUUAAUUUA [whbob_SS_FMNA__2th172] | 118 nM | 184 nM | 159 nM | 299 nM | 84.1 nM |
| AAUGCGCAGGGAAGGAGCGCCGUCCAGUGAUGUUGGAGUUAAAUACCAGUGAUGUUGGUUAGGCAGGUAGGUCGCCCUAAAGCGC [Exclusion Arginine B GF 1] | 118 nM | 79.9 nM | 92.1 nM | 98 nM | 83.8 nM |
| CCUAUCUCAUACGAUACCAGUGAAUAACCAGUGAUGUUGGAAUAACCAAGGAAUAUUUUACACCCUUGGCAGCGUAUGGGAUAGG [Ex Theophylline B K4 25] | 274 nM | 239 nM | 305 nM | 270 nM | 269 nM |
| UCGAACGAUGGAAGGAGCGCUCGUCAGUCCUGCGAGUGAUGUUCGUGGGUAAAUAGUCGCGAGCAGGUAGGUCGCCAUCUUGGGC [Reriat] | 153 nM | 132 nM | 151 nM | 136 nM | 134 nM |
| AUGUCUGAUAGCAGUGAUGUUGCUUCGGAUACCAGACGAGAUCAUGUCCCUUGGCAGCUGACACGGCACGUGCUAGGUUAGAUGA [whbob_Ex_Theo_A_th72] | 121 nM | 98.3 nM | 115 nM | 116 nM | 113 nM |
| UGGGAUGUUAAAGGAUAUAGCAAGUGAUAUAAGAAAGUGAGUGAUGUUUAUGUAGGUGAUGAUAUGUUAGAAGGUUAACAAAACG [abcdefgh] | 296 nM | 158 nM | 211 nM | 185 nM | 218 nM |
| UGAUAAAGCAGUGAUGUUGCAAGUAAUGAUACCAGUUAAGAAGAGAACCCUUGGCAGCAUAAAGUGCGCUCUGAUGAGUGUGCUU [whbob_SS_Theo_A_w52] | 96.7 nM | 130 nM | 111 nM | 152 nM | 95.6 nM |
| AUUAUAUUGUGAAGGAGCGCGAAUAGCAGUGAUGUUGCUAUCAAACGAUAUAUUAUUUACACGCAGGUAGGUCGCACAAUAUAUA [JR_Nu_SSArginiB_Sub022] | 171 nM | 125 nM | 149 nM | 124 nM | 155 nM |
| UACUUUAAUUUAUAACUAUCUUUAUUUUGUCAGGAUAUCGUAUAGUCGAGAAGGGACUCUAUCAAGUGAUGUUUGAUAUAUCGUU [JR_SSFMNA_Sub025] | 140 nM | 155 nM | 131 nM | 147 nM | 112 nM |
| UUGUUUGGUUGAGAGGUUGGGCGAGAUGAUACCAGUAGAGAAGAGUACCCUUGGCAGCAUAGGAAAGAUAUAGUGAUGUUGUAUA [SSTheophA.Q] | 354 nM | 313 nM | 357 nM | 165 nM | 309 nM |
| AGAGGUCCCAGUGAUGUUGGUGCGUUUGGUCGAGGACCGGUACGGCCGCCACUCGUUCAUAGUAAGCCCUCUUUAGUGUUUCUAA [theeternabot_sameState_KL_Trp_A_9] | 544 nM | 336 nM | 428 nM | 551 nM | 186 nM |
| GGGAGUAGUGCGGCCGCCACUGAGAAAGAAGAAGAAUAUAGUGAUGUUAUGUGGGAAAGGAAGAACAGGACCGGGCAUUAGAUUU [#21 K4 Tryptophan B Same State] | 821 nM | 450 nM | 488 nM | 441 nM | 499 nM |

| Sequence | apparent KD of K4 kissing-loop reporter (input ligand: FMN 200 uM) | apparent KD of K4 kissing-loop reporter (input ligand: arginine 13.2 mM) | apparent KD of K4 kissing-loop reporter (input ligand: none) | apparent KD of K4 kissing-loop reporter [1] | apparent KD of K4 kissing-loop reporter [2] |
| --- | --- | --- | --- | --- | --- |
| UUUGUAUAGGGAAGGAGCGUGAAUGAGAAAGAAUAUAGUGAUGUUAUAUAGAAGAAAGAAUCACAGGUAGGUCGCCCGGAGGAGG [SSArgB.G] | 484 nM | 363 nM | 371 nM | 482 nM | 337 nM |
| UUUUAAAUGUCUGAUACCAGAGAAAAUUUAUGUAGUGAUGUUAUAUACAAAAUAAAUAAGCUCCCUUGGCAGCAGUAUUAAUUUU [AstrosExc-TheB#7] | 465 nM | 449 nM | 465 nM | 357 nM | 442 nM |
| UAUCUUUACUGAAGGAGCGAGCAUUUUGGAGUGAUGUUCCGAGCGAGUGAUGUUCGCAUAGCUCAGGUAGGUCGCAGUGGGAAAA [Same State Arginie B GF 15] | 152 nM | 149 nM | 143 nM | 162 nM | 138 nM |
| UAAGAGGACCACUGCGAGAGUCCUCGAAUACGAGGACCGGUACGGCCGCCACUCGAUAAUUUGCAGUGAUGUUGCAAGUAAGAAU [BrourdMod 6 - Jieux - Same State Tryptophan A] | 64.5 nM | 114 nM | 82.4 nM | 104 nM | 48.6 nM |
| GGCUCCUACGGAGGAUAUAGUAGCCCAGAGUGAUGUUCUAGGGUGUUUUCCGAUUUAGUCAUUGUUCUAGAAGGCCGUAGGAGCC | 266 nM | 177 nM | 189 nM | 183 nM | 210 nM |
| CCAUCGCUAUUCGAUACCAGCUAAAUAUAAUAUAACCAGUGAUGUUGGUAUAUAAAUAUAAGCCCUUGGCAGCGAAUAGUGAUGG [Theophylline B K4 30] | 139 nM | 107 nM | 113 nM | 103 nM | 109 nM |
| AAACAUUGGUCGGAUACCAGCUGAUCGGAAACGAUCUUGCUGGAGUGAUGUUCCAAGUAAAGCCCUUGGCAGCCGACCGAUGAAA [MAT - Same State Theophlline B - Mod of Eli - D20] | 140 nM | 50.4 nM | 63.2 nM | 135 nM | 85.8 nM |
| UUUUAUUAAUACUUCUAGUGAUGUUAGAUACGAGGACCGGUACGGCCGCCACUCGCUUAUUGGUUUAUAUAUUUUAUAUUCUUUA [JR_SSTryptoA_Sub014] | 327 nM | 362 nM | 342 nM | 369 nM | 281 nM |
| ACGUGCACCAGUGAUGUUGGAAAAUAUGAAGGAGCGGGUGAAAACCCAGGUAGGUCGCAUAAUAGCACGAGCCACGAAAGUGGCA | 125 nM | 138 nM | 157 nM | 128 nM | 122 nM |
| GAAACGUUGCGGACUAUCGCAUAAAGUCACCGAGGACCGGUACGGCCGCCACUCGCCAGUGAUGUUGGCGUGUUUGCGCGCUGUG [Titebebi] | 104 nM | 94 nM | 95.4 nM | 101 nM | 178 nM |
| AAUAAAAGAUGUUUAGGAAAGCAAAUGGAAGGAGCGUGCGAAAGCACAGGUAGGUCGCCAGUGAUGUUGGCACCUGAGCAUCAAA [#SwitchBubble 18 #K4Late] | 251 nM | 285 nM | 303 nM | 336 nM | 264 nM |
| UUUAUAAAGUCGGCCGCCACUGGAUUUAUGUUUGUUUCGUCUGGAUCAAAGUGAUGUUUUGAGUCCAGGACCGGGACAUUUGUUA [whbob_Ex_Tryp_B_w38] | 88.9 nM | 74.8 nM | 81.2 nM | 73.5 nM | 113 nM |
| AGCCGAAAGGCGAGUGCUGUCACUCCGGAAGGAGCGCCCAAAAGGGCAGGUAGGUCGCCGGAGUGAUGUUCCGGUGCAGCACUCA [Omei KL Arginine A Exc B v3] | 572 nM | 497 nM | 784 nM | 533 nM | 482 nM |
| GUGCGGCUAGUGAUGUUGGUUGUGUGGGAAGGAGCGCAGAUUCAUGCAGGUAGGUCGCCCACACGUCUGAAAGGAUGAUAAUUCA [#12 K4 Arginine A Same State] | 409 nM | 306 nM | 354 nM | 407 nM | 350 nM |
| UUUCGGUUCUGAGGAUAUUCGGACAAAUAUAGUGAUGUUGUAUAAGGAGGAGGGUGUUGGCAGUGCGGAGAAGGCAGACCACGAU [ExFMNB.X] | 869 nM | 720 nM | 747 nM | 575 nM | 621 nM |
| GUUAUGGACCUGGAUACCAGCUGGUACAAGGUCGGUCUACAUGAGUGAUGUUCAUGUGUCAGCCCUUGGCAGCCAGCAACCGGCA [KL-XTheo-B10] | 90.3 nM | 97.1 nM | 101 nM | 119 nM | 86.2 nM |
| AAAUCUUUCAGAAGGAGCGUGGAUUAUUCAUAUAUAUUUAUUACGAGUGAUGUUCGUAAUUCACAGGUAGGUCGCUGUUCAAUAA [JR_ExcArginiB_Sub005] | 117 nM | 116 nM | 113 nM | 116 nM | 102 nM |
| UAGUCAUACAGAGGAUAUCGUAUGAGUGAUGUUCAUACGACAUAAUCGAGUUGUAUCGAUGUUCGACGAGAAGGCUGUAUGACUA [FMN B Ex t1b] | 210 nM | 89.6 nM | 118 nM | 106 nM | 111 nM |
| ACGUCUUGUAAACUCGUGGUUUCGAUCGAUACCAGUAGCGAGAGUUACCCUUGGCAGCGACAUGAGUGAUGUUCAUGUACGAAGA [KL-XTheoA3] | 98.6 nM | 87.9 nM | 92.9 nM | 89 nM | 90.7 nM |
| UUUUUGGAGAAUUAUAGUGAUGUUAUGAAGAAGGAUAUCUAAAGAUGGAGAAGGUUUAAUAGUUAAGGGAUGGAGGGUGGGUGGG [ExFMNA.P] | 282 nM | 155 nM | 293 nM | 221 nM | 194 nM |
| GCUAGUUUGGAAGGAUAUUCGUGCGAUCAAGUCAAACUUUACUGAGGGCGUUUUGGAGUGAUGUUCGAAGAAGGUCCCUUACUUA [theeternabot_exclusion_KL_FMN_B_28] | 1400 nM | 816 nM | 999 nM | 664 nM | 758 nM |
